Reference: paper doi:10.1101/2025.09.02.673855, “Bacteriophage T4 gene 32 protein: Insights into its Interaction with ssDNA, binding cooperativity, and conformational change” (bioRxiv, 2025)
Substitutions are numbered along the chain they refer to. Numbers in names are those of the source.

B1: Bacteriophage T4 gene 32 protein, full-length protein (1-301) (natural protein, UniProt P03695 1-301, looked up)
chain: MFKRKSTAELAAQMAKLNGNKGFSSEDKGEWKLKLDNAGNGQAVIRFLPSKNDEQAPFAILVNHGFKKNGKWYIETCSSTHGDYDSCPVCQYISKNDLYNTDNKEYSLVKRKTSYWANILVVKDPAAPENEGKVFKYRFGKKIWDKINAMIAVDVEMGETPVDVTCPWEGANFVLKVKQVSGFSNYDESKFLNQSAIPNIDDESFQKELFEQMVDLSEMTSKDKFKSFEELNTKFGQVMGTAVMGGAAATAAKKADKVADDLDAFNVDDFNTKTEDDFMSSSSGSSSSADDTDLDDLLNDL
notes: also called gp32; wild-type gp32; source: expression plasmid pYS6, induced, overexpressed and purified as previously described
B2: gp32 variant D215A, E218A, D223A (natural protein, bacteriophage T4, UniProt P03695 1-301, looked up)
chain: B1 chain with D215A, E218A, D223A
notes: gene 32 protein of bacteriophage T4 with three negative charges removed within and adjacent to the B helix (216-220); source: pYS6 variant, induced, overexpressed and purified as previously described
B3: gp32 variant E229A, E230A (natural protein, bacteriophage T4, UniProt P03695 1-301, looked up)
chain: B1 chain with E229A, E230A
notes: gene 32 protein of bacteriophage T4 with two negative charges removed within the C helix (228-237); source: pYS6 variant, induced, overexpressed and purified as previously described

Molecular target: the molecule itself
Assay: other fluorescence titration; aliquots of protein added to poly(εA), enhancement of ethenoadenylate fluorescence; 0.45 M NaCl, 0.02 M HEPES pH 7.68, 1x10^-4 M EDTA/Na+, 20°C; McGhee-von Hippel cooperative model, n = 8; ω is the cooperativity between adjacent proteins bound on the polynucleotide

Protein	cooperativity parameter ω (on poly(εA))
B1	2000
B2	120
B3	1000
